Results from patent US20250073311A1, “DOSAGE REGIME” (ZEALAND PHARMA A/S, priority 2021, published 2025).
Numbered stars: 1 amine (or outer) side, 2 acyl side, 3 side chain; on linkers, the order of the positions; unused ones are H or OH. Square brackets hold non-standard residues; d marks the D form. Side chains are listed from the residue outwards. * marks the point of attachment. C18 diacid = O=C(O)CCCCCCCCCCCCCCCCC(=O)*; γGlu = O=C(O)[C@H](CCC(=O)[*:2])N[*:1]; Aib = CC(C)(N)C(=O)O

T1: human GLP-2 receptor (hGLP2-R) (human, UniProt O95838)
T1 sequence: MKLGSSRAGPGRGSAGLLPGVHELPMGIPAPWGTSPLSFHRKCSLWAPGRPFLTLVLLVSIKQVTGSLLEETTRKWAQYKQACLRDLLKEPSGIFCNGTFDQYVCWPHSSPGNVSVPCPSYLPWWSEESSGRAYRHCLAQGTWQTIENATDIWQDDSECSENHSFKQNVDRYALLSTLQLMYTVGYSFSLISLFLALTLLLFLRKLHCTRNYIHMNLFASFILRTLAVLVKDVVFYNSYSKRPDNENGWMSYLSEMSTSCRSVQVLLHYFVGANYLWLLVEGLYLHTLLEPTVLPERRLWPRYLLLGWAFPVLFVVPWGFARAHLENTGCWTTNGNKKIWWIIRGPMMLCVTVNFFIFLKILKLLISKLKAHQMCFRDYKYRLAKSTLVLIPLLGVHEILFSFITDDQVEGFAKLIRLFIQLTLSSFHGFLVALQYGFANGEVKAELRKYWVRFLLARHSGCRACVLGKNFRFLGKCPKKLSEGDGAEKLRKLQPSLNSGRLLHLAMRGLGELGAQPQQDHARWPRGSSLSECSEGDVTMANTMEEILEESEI


Legend:
[1] = target: T1, human GLP-2 receptor (hGLP2-R); assay: cell-based or functional assay
[2] = target: human glucagon-like peptide 1 receptor (GLP-1R) (human, UniProt P43220); assay: cell-based or functional assay

| Binder | EC50 GLP-2 (nM), cAMP AlphaScreen [1] | EC50 GLP-1 (nM), cAMP AlphaScreen [2] |
| --- | --- | --- |
| H-H[Aib]EGTFSSELATILDK([γGlu-C18 diacid])LAARDFIAWLIAHKITD-OH (SMILES CC[C@H](C)[C@H](NC(=O)[C@H](CC(C)C)NC(=O)[C@H](Cc1c[nH]c2ccccc12)NC(=O)[C@H](C)NC(=O)[C@@H](NC(=O)[C@H](Cc1ccccc1)NC(=O)[C@H](CC(=O)O)NC(=O)[C@H](CCCNC(=N)N)NC(=O)[C@H](C)NC(=O)[C@H](C)NC(=O)[C@H](CC(C)C)NC(=O)[C@H](CCCCNC(=O)CC[C@H](NC(=O)CCCCCCCCCCCCCCCCC(=O)O)C(=O)O)NC(=O)[C@H](CC(=O)O)NC(=O)[C@H](CC(C)C)NC(=O)[C@@H](NC(=O)[C@@H](NC(=O)[C@H](C)NC(=O)[C@H](CC(C)C)NC(=O)[C@H](CCC(=O)O)NC(=O)[C@H](CO)NC(=O)[C@H](CO)NC(=O)[C@H](Cc1ccccc1)NC(=O)[C@@H](NC(=O)CNC(=O)[C@H](CCC(=O)O)NC(=O)C(C)(C)NC(=O)[C@@H](N)Cc1c[nH]cn1)[C@@H](C)O)[C@@H](C)O)[C@@H](C)CC)[C@@H](C)CC)C(=O)N[C@@H](C)C(=O)N[C@@H](Cc1c[nH]cn1)C(=O)N[C@@H](CCCCN)C(=O)N[C@H](C(=O)N[C@H](C(=O)N[C@@H](CC(=O)O)C(=O)O)[C@@H](C)O)[C@@H](C)CC) [Compound 13] | 0.099 nM | 2.2 nM |
| H-H[Aib]EGSFTSELATILDK([γGlu-C18 diacid])LAARDFIAWLIAHKITD-OH (SMILES CC[C@H](C)[C@H](NC(=O)[C@H](CC(C)C)NC(=O)[C@H](Cc1c[nH]c2ccccc12)NC(=O)[C@H](C)NC(=O)[C@@H](NC(=O)[C@H](Cc1ccccc1)NC(=O)[C@H](CC(=O)O)NC(=O)[C@H](CCCNC(=N)N)NC(=O)[C@H](C)NC(=O)[C@H](C)NC(=O)[C@H](CC(C)C)NC(=O)[C@H](CCCCNC(=O)CC[C@H](NC(=O)CCCCCCCCCCCCCCCCC(=O)O)C(=O)O)NC(=O)[C@H](CC(=O)O)NC(=O)[C@H](CC(C)C)NC(=O)[C@@H](NC(=O)[C@@H](NC(=O)[C@H](C)NC(=O)[C@H](CC(C)C)NC(=O)[C@H](CCC(=O)O)NC(=O)[C@H](CO)NC(=O)[C@@H](NC(=O)[C@H](Cc1ccccc1)NC(=O)[C@H](CO)NC(=O)CNC(=O)[C@H](CCC(=O)O)NC(=O)C(C)(C)NC(=O)[C@@H](N)Cc1c[nH]cn1)[C@@H](C)O)[C@@H](C)O)[C@@H](C)CC)[C@@H](C)CC)C(=O)N[C@@H](C)C(=O)N[C@@H](Cc1c[nH]cn1)C(=O)N[C@@H](CCCCN)C(=O)N[C@H](C(=O)N[C@H](C(=O)N[C@@H](CC(=O)O)C(=O)O)[C@@H](C)O)[C@@H](C)CC) [Compound 14] | 0.086 nM | 0.57 nM |
| H-H[Aib]EGTFSSELATILDK([γGlu-C18 diacid])LAARDFIAWLIEHKITD-OH (SMILES CC[C@H](C)[C@H](NC(=O)[C@H](Cc1ccccc1)NC(=O)[C@H](CC(=O)O)NC(=O)[C@H](CCCNC(=N)N)NC(=O)[C@H](C)NC(=O)[C@H](C)NC(=O)[C@H](CC(C)C)NC(=O)[C@H](CCCCNC(=O)CC[C@H](NC(=O)CCCCCCCCCCCCCCCCC(=O)O)C(=O)O)NC(=O)[C@H](CC(=O)O)NC(=O)[C@H](CC(C)C)NC(=O)[C@@H](NC(=O)[C@@H](NC(=O)[C@H](C)NC(=O)[C@H](CC(C)C)NC(=O)[C@H](CCC(=O)O)NC(=O)[C@H](CO)NC(=O)[C@H](CO)NC(=O)[C@H](Cc1ccccc1)NC(=O)[C@@H](NC(=O)CNC(=O)[C@H](CCC(=O)O)NC(=O)C(C)(C)NC(=O)[C@@H](N)Cc1c[nH]cn1)[C@@H](C)O)[C@@H](C)O)[C@@H](C)CC)C(=O)N[C@@H](C)C(=O)N[C@@H](Cc1c[nH]c2ccccc12)C(=O)N[C@@H](CC(C)C)C(=O)N[C@H](C(=O)N[C@@H](CCC(=O)O)C(=O)N[C@@H](Cc1c[nH]cn1)C(=O)N[C@@H](CCCCN)C(=O)N[C@H](C(=O)N[C@H](C(=O)N[C@@H](CC(=O)O)C(=O)O)[C@@H](C)O)[C@@H](C)CC)[C@@H](C)CC) [Compound 10] | 0.087 nM | 1.8 nM |
| H-H[Aib]EGTFTSELATILDK([γGlu-C18 diacid])LAARDFIAWLIEHKITD-OH (SMILES CC[C@H](C)[C@H](NC(=O)[C@H](Cc1ccccc1)NC(=O)[C@H](CC(=O)O)NC(=O)[C@H](CCCNC(=N)N)NC(=O)[C@H](C)NC(=O)[C@H](C)NC(=O)[C@H](CC(C)C)NC(=O)[C@H](CCCCNC(=O)CC[C@H](NC(=O)CCCCCCCCCCCCCCCCC(=O)O)C(=O)O)NC(=O)[C@H](CC(=O)O)NC(=O)[C@H](CC(C)C)NC(=O)[C@@H](NC(=O)[C@@H](NC(=O)[C@H](C)NC(=O)[C@H](CC(C)C)NC(=O)[C@H](CCC(=O)O)NC(=O)[C@H](CO)NC(=O)[C@@H](NC(=O)[C@H](Cc1ccccc1)NC(=O)[C@@H](NC(=O)CNC(=O)[C@H](CCC(=O)O)NC(=O)C(C)(C)NC(=O)[C@@H](N)Cc1c[nH]cn1)[C@@H](C)O)[C@@H](C)O)[C@@H](C)O)[C@@H](C)CC)C(=O)N[C@@H](C)C(=O)N[C@@H](Cc1c[nH]c2ccccc12)C(=O)N[C@@H](CC(C)C)C(=O)N[C@H](C(=O)N[C@@H](CCC(=O)O)C(=O)N[C@@H](Cc1c[nH]cn1)C(=O)N[C@@H](CCCCN)C(=O)N[C@H](C(=O)N[C@H](C(=O)N[C@@H](CC(=O)O)C(=O)O)[C@@H](C)O)[C@@H](C)CC)[C@@H](C)CC) [Compound 12] | 0.11 nM | 0.14 nM |
| H-H[Aib]EGSFTSELATILDK([γGlu-C18 diacid])LAARDFIAWLIEHKITD-OH (SMILES CC[C@H](C)[C@H](NC(=O)[C@H](Cc1ccccc1)NC(=O)[C@H](CC(=O)O)NC(=O)[C@H](CCCNC(=N)N)NC(=O)[C@H](C)NC(=O)[C@H](C)NC(=O)[C@H](CC(C)C)NC(=O)[C@H](CCCCNC(=O)CC[C@H](NC(=O)CCCCCCCCCCCCCCCCC(=O)O)C(=O)O)NC(=O)[C@H](CC(=O)O)NC(=O)[C@H](CC(C)C)NC(=O)[C@@H](NC(=O)[C@@H](NC(=O)[C@H](C)NC(=O)[C@H](CC(C)C)NC(=O)[C@H](CCC(=O)O)NC(=O)[C@H](CO)NC(=O)[C@@H](NC(=O)[C@H](Cc1ccccc1)NC(=O)[C@H](CO)NC(=O)CNC(=O)[C@H](CCC(=O)O)NC(=O)C(C)(C)NC(=O)[C@@H](N)Cc1c[nH]cn1)[C@@H](C)O)[C@@H](C)O)[C@@H](C)CC)C(=O)N[C@@H](C)C(=O)N[C@@H](Cc1c[nH]c2ccccc12)C(=O)N[C@@H](CC(C)C)C(=O)N[C@H](C(=O)N[C@@H](CCC(=O)O)C(=O)N[C@@H](Cc1c[nH]cn1)C(=O)N[C@@H](CCCCN)C(=O)N[C@H](C(=O)N[C@H](C(=O)N[C@@H](CC(=O)O)C(=O)O)[C@@H](C)O)[C@@H](C)CC)[C@@H](C)CC) [Compound 11] | 0.085 nM | 0.32 nM |
